Laboratory results as given in patent publication US20180298083A1.
Like-named read-outs stand apart in the source and are kept apart here.

Legend:
CAAN.A2 (HIV-1) [1] = target: CAAN.A2 (HIV-1)
G472A (HIV-1) = assay: gp120 capture ELISA
T283A (HIV-1) = assay: gp120 capture ELISA
D279A (HIV-1) = assay: gp120 capture ELISA
D474A (HIV-1) = assay: gp120 capture ELISA
D167N (HIV-1) = assay: gp120 capture ELISA
M475A (HIV-1) = assay: gp120 capture ELISA
R476A (HIV-1) = assay: gp120 capture ELISA
G366A (HIV-1) = assay: gp120 capture ELISA
I371A (HIV-1) = assay: gp120 capture ELISA
G367A (HIV-1) = assay: gp120 capture ELISA
N262A (HIV-1) = assay: gp120 capture ELISA
[2] = target: monomeric gp120^JRCSF (HIV-1 strain JRCSF) (UniProt P20871); assay: gp120 capture ELISA
D368A (HIV-1) = assay: gp120 capture ELISA
P369A (HIV-1) = assay: gp120 capture ELISA
R469A (HIV-1) = assay: gp120 capture ELISA
S365A (HIV-1) = assay: gp120 capture ELISA
N332A (HIV-1) = assay: gp120 capture ELISA
G471A (HIV-1) = assay: gp120 capture ELISA
V372A (HIV-1) = assay: gp120 capture ELISA
G473A (HIV-1) = assay: gp120 capture ELISA
N197T (HIV-1) = assay: gp120 capture ELISA
N280A (HIV-1) = assay: gp120 capture ELISA
D457A (HIV-1) = assay: gp120 capture ELISA
K282A (HIV-1) = assay: gp120 capture ELISA
M373A (HIV-1) = assay: gp120 capture ELISA
I467A (HIV-1) = assay: gp120 capture ELISA
E370A (HIV-1) = assay: gp120 capture ELISA
Sm, Smith antigen = assay: Luminex AtheNA Multi-Lyte ANA test
[3] = target: SSA, Sjogren's syndrome antigen A; assay: Luminex AtheNA Multi-Lyte ANA test
Histone = assay: Luminex AtheNA Multi-Lyte ANA test
RNP, ribonucleoprotein = assay: Luminex AtheNA Multi-Lyte ANA test
[4] = target: SSB, Sjogren syndrome antigen B (Homo sapiens (Human)) (UniProt P05455); assay: Luminex AtheNA Multi-Lyte ANA test
CentrB, centromere B = assay: Luminex AtheNA Multi-Lyte ANA test
Jo1 antigen = assay: Luminex AtheNA Multi-Lyte ANA test
Scl 70, scleroderma 70 = assay: Luminex AtheNA Multi-Lyte ANA test
6631.V3.C10 (HIV-1) [5] = target: 6631.V3.C10 (HIV-1)
[6] = target: gp120 of X2088 (HIV-1 strain X2088.c9)
CAAN.A2 (HIV-1) [7] = target: CAAN.A2 (HIV-1); remark: listed apart in the source
6631.V3.C10 (HIV-1) [8] = target: 6631.V3.C10 (HIV-1); remark: listed apart in the source
[9] = target: gp120 of X2088 (HIV-1 strain X2088.c9); remark: listed apart in the source
6631.V3.C10 (HIV-1) [10] = target: 6631.V3.C10 (HIV-1); remark: listed apart in the source

Chain of CentrB, centromere B (P07199 2-599): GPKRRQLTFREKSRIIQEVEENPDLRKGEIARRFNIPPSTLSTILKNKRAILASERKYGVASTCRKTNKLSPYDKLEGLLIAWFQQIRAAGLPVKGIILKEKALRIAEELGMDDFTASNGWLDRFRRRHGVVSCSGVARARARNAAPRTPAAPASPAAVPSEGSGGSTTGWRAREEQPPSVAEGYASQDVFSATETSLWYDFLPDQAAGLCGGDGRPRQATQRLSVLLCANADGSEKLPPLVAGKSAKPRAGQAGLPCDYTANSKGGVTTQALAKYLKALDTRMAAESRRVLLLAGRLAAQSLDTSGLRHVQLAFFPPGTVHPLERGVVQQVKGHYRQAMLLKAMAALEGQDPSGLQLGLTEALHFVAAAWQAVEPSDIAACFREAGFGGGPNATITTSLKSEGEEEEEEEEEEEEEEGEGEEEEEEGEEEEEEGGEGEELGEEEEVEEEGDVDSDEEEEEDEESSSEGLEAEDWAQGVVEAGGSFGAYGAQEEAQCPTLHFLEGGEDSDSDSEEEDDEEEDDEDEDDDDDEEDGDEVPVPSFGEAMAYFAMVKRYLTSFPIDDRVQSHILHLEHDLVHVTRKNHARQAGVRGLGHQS
Chain of SSB, Sjogren syndrome antigen B (Homo sapiens (Human)) (P05455 whole entry): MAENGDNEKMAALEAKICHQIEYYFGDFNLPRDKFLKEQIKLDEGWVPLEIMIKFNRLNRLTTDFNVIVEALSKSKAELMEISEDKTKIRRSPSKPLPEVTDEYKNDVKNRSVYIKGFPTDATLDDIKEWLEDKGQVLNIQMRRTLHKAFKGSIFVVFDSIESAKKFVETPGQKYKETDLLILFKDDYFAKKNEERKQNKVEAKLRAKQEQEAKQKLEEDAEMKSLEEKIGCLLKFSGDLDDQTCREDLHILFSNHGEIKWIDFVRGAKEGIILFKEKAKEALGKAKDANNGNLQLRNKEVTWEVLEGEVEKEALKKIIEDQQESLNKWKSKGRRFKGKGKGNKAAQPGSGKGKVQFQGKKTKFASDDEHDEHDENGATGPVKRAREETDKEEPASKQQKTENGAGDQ

VRC27 (antibody)
neutralisation IC50 (CAAN.A2 (HIV-1) [1]): 0.264 µg/mL
Binding affinity relative to WT (%) (G472A (HIV-1)): 0%
Binding affinity relative to WT (%) (T283A (HIV-1)): 15%
Binding affinity relative to WT (%) (D279A (HIV-1)): 7%
Binding affinity relative to WT (%) (D474A (HIV-1)): 0%
Binding affinity relative to WT (%) (D167N (HIV-1)): 37%
Binding affinity relative to WT (%) (M475A (HIV-1)): 35%
Binding affinity relative to WT (%) (R476A (HIV-1)): 37%
Binding affinity relative to WT (%) (G366A (HIV-1)): 3%
Binding affinity relative to WT (%) (I371A (HIV-1)): 0%
Binding affinity relative to WT (%) (G367A (HIV-1)): 0%
Binding affinity relative to WT (%) (N262A (HIV-1)): 0%
Binding affinity relative to WT (%) [2]: 100%
Binding affinity relative to WT (%) (D368A (HIV-1)): 0%
Binding affinity relative to WT (%) (P369A (HIV-1)): 38%
Binding affinity relative to WT (%) (R469A (HIV-1)): 0%
Binding affinity relative to WT (%) (S365A (HIV-1)): 107%
Binding affinity relative to WT (%) (N332A (HIV-1)): 57%
Binding affinity relative to WT (%) (G471A (HIV-1)): 131%
Binding affinity relative to WT (%) (V372A (HIV-1)): 15%
Binding affinity relative to WT (%) (G473A (HIV-1)): 6%
Binding affinity relative to WT (%) (N197T (HIV-1)): 28%
Binding affinity relative to WT (%) (N280A (HIV-1)): 0%
Binding affinity relative to WT (%) (D457A (HIV-1)): 19%
Binding affinity relative to WT (%) (K282A (HIV-1)): 57%
Binding affinity relative to WT (%) (M373A (HIV-1)): 23%
Binding affinity relative to WT (%) (I467A (HIV-1)): 27%
Binding affinity relative to WT (%) (E370A (HIV-1)): 2%

4E10 (antibody)
Luminex reactivity (unit not given) (Sm, Smith antigen): 6.6
Luminex reactivity (unit not given) [3]: 31
Luminex reactivity (unit not given) (Histone): 9
Luminex reactivity (unit not given) (RNP, ribonucleoprotein): 9
Luminex reactivity (unit not given) [4]: 161
Luminex reactivity (unit not given) (CentrB, centromere B): 3
Luminex reactivity (unit not given) (Jo1 antigen): 146
Luminex reactivity (unit not given) (Scl 70, scleroderma 70): 8

N6 with CDRH1 of VRC01 (antibody)
neutralisation IC50 (T250-4 (HIV-1)): > 50 µg/mL
neutralisation IC50 (6631.V3.C10 (HIV-1) [5]): > 50 µg/mL
neutralisation IC50 [6]: 2.08 µg/mL

VRC-PG04 (antibody)
Binding affinity relative to WT (%) (G472A (HIV-1)): 38%
Binding affinity relative to WT (%) (T283A (HIV-1)): 83%
Binding affinity relative to WT (%) (D279A (HIV-1)): 247%
Binding affinity relative to WT (%) (D474A (HIV-1)): 0%
Binding affinity relative to WT (%) (D167N (HIV-1)): 42%
Binding affinity relative to WT (%) (M475A (HIV-1)): 90%
Binding affinity relative to WT (%) (R476A (HIV-1)): 84%
Binding affinity relative to WT (%) (G366A (HIV-1)): 17%
Binding affinity relative to WT (%) (I371A (HIV-1)): 21%
Binding affinity relative to WT (%) (G367A (HIV-1)): 19%
Binding affinity relative to WT (%) (N262A (HIV-1)): 14%
Binding affinity relative to WT (%) (D368A (HIV-1)): 12%
Binding affinity relative to WT (%) (P369A (HIV-1)): 44%
Binding affinity relative to WT (%) (R469A (HIV-1)): 6%
Binding affinity relative to WT (%) (S365A (HIV-1)): 34%
Binding affinity relative to WT (%) (N332A (HIV-1)): 31%
Binding affinity relative to WT (%) (G471A (HIV-1)): 64%
Binding affinity relative to WT (%) (V372A (HIV-1)): 15%
Binding affinity relative to WT (%) (G473A (HIV-1)): 34%
Binding affinity relative to WT (%) (N197T (HIV-1)): 39%
Binding affinity relative to WT (%) (N280A (HIV-1)): 12%
Binding affinity relative to WT (%) (D457A (HIV-1)): 0%
Binding affinity relative to WT (%) (K282A (HIV-1)): 12%
Binding affinity relative to WT (%) (M373A (HIV-1)): 44%
Binding affinity relative to WT (%) (I467A (HIV-1)): 40%
Binding affinity relative to WT (%) (E370A (HIV-1)): 20%

N6 with FRL1 of VRC01 (antibody)
neutralisation IC50 (6631.V3.C10 (HIV-1) [5]): 0.642 µg/mL
neutralisation IC50 [6]: 1.14 µg/mL
neutralisation IC50 (CAAN.A2 (HIV-1) [7]): 1.01 µg/mL

N6 with CDRL1 of VRC01 (antibody)
neutralisation IC50 (6631.V3.C10 (HIV-1) [5]): > 50 µg/mL
neutralisation IC50 [6]: > 50 µg/mL

VRC07 N6CDRH3 (antibody)
neutralisation IC50 (CAAN.A2 (HIV-1) [7]): 2.18 µg/mL

CD4-Ig (from UniProt P01730 26-203) (Fc fusion; other documents disagree on this pair)
Binding affinity relative to WT (%) [2]: 100%

N6 with CDRL3 of VRC01 (antibody)
neutralisation IC50 (6631.V3.C10 (HIV-1) [5]): 0.139 µg/mL
neutralisation IC50 [6]: 0.125 µg/mL

N6 heavy chain with VRC01 light chain (antibody)
neutralisation IC50 (6631.V3.C10 (HIV-1) [8]): 1.04 µg/mL
neutralisation IC50 [9]: > 50 µg/mL
neutralisation IC50 (CAAN.A2 (HIV-1) [1]): 0.211 µg/mL

N6 with CDRH1 of VRC27 (antibody)
neutralisation IC50 (6631.V3.C10 (HIV-1) [10]): 0.122 µg/mL

N6 heavy chain with 12A21 light chain (antibody)
neutralisation IC50 (6631.V3.C10 (HIV-1) [8]): 3.11 µg/mL
neutralisation IC50 [9]: 0.314 µg/mL
neutralisation IC50 (CAAN.A2 (HIV-1) [1]): 3.71 µg/mL

VRC01 ARP60-62GGGHC (antibody)
neutralisation IC50 (CAAN.A2 (HIV-1) [7]): 3.23 µg/mL
